According to the Immune Epitope Database (IEDB):
Blank lines part the entries; values can stand above or below the sequence they belong to.

Columns and labels:
[1] = biological target: HLA-A*33:01; test: IEDB peptide-MHC binding, purified MHC/competitive/radioactivity; filed as Kd, often an IC50 or EC50 that approximates it; ≥ and ≤ were set here for values at or beyond the usual limits of such assays
[2] = biological target: HLA-A*03:01; test: as above
[3] = biological target: HLA-A*68:01; test: as above
[4] = biological target: HLA-A*11:01; test: as above
[5] = biological target: HLA-A*31:01; test: as above
[6] = biological target: HLA-A*02:03; test: as above
[7] = biological target: HLA-A*02:02; test: as above
[8] = biological target: HLA-A*02:06; test: as above
[9] = biological target: HLA-A*03:01; test: IEDB peptide-MHC binding, purified MHC/direct/fluorescence; filed as Kd, often an IC50 or EC50 that approximates it; ≥ and ≤ were set here for values at or beyond the usual limits of such assays; settings: source organism: Bacillus thuringiensis
[10] = biological target: HLA-A*02:01; test: as above; settings: source organism: Mycobacterium tuberculosis
[11] = source organism: Vaccinia virus WR
[12] = source organism: SARS coronavirus Tor2
[13] = source organism: Mammarenavirus lassaense
[14] = source organism: Mammarenavirus brazilense
[15] = source organism: Mammarenavirus juninense

Sequence: SSDSENNPEY
Kd [1, 11]: ≥ 70000 nM
Kd [2, 11]: ≥ 70100 nM
Kd [3, 11]: ≥ 70200 nM
Kd [4, 11]: 4460 nM
Kd [5, 11]: ≥ 70000 nM

Sequence: SSESLVYGIR
Kd [1, 11]: 623 nM
Kd [2, 11]: ≥ 34800 nM
Kd [3, 11]: 475 nM
Kd [4, 11]: 476 nM
Kd [5, 11]: 780 nM

Sequence: SVDVDIYDAV
Kd [6, 11]: 9.18 nM
Kd [7, 11]: 0.427 nM
Kd [8, 11]: 3.3 nM

Sequence: SVQLSNNKYV
Kd [6, 11]: 820 nM
Kd [7, 11]: 1220 nM
Kd [8, 11]: 8830 nM

Sequence: SVTKSSSWK
Kd [1, 11]: ≥ 77700 nM
Kd [2, 11]: 7.62 nM
Kd [3, 11]: 41.2 nM
Kd [4, 11]: 2.51 nM
Kd [5, 11]: 19600 nM

Sequence: TAATKRYPGV
Kd [6, 11]: 10500 nM
Kd [7, 11]: ≥ 25500 nM
Kd [8, 11]: 5570 nM

Sequence: TFFIFNKLVK
Kd [1, 12]: 1370 nM
Kd [2, 12]: 81.8 nM
Kd [3, 12]: 490 nM
Kd [4, 12]: 50.5 nM
Kd [5, 12]: 1550 nM

Sequence: TIDNIVTSLA
Kd [6, 11]: ≥ 70400 nM
Kd [7, 11]: ≥ 70000 nM
Kd [8, 11]: ≥ 69800 nM

Sequence: TILIRTGLLV
Kd ([8]; source organism: Dengue virus 2 Jamaica/1409/1983): 101 nM

Sequence: TLDAANHSI
Kd [6, 12]: 283 nM
Kd [7, 12]: 92.4 nM
Kd [8, 12]: 28.9 nM

Sequence: TLDDLAIKQY
Kd [1, 11]: ≥ 70000 nM
Kd [2, 11]: 18400 nM
Kd [3, 11]: ≥ 62400 nM
Kd [4, 11]: 2920 nM
Kd [5, 11]: ≥ 70000 nM

Sequence: TMKPHTFNK
Kd [9]: 120 nM

Sequence: TSEKYSKGYK
Kd [1, 11]: ≥ 70000 nM
Kd [2, 11]: ≥ 25000 nM
Kd [3, 11]: 924 nM
Kd [4, 11]: 1050 nM
Kd [5, 11]: ≥ 70000 nM

Sequence: TSETMYLTMK
Kd [1, 11]: 11000 nM
Kd [2, 11]: 1920 nM
Kd [3, 11]: 471 nM
Kd [4, 11]: 111 nM
Kd [5, 11]: 2000 nM

Sequence: TSFGPLVRK
Kd [1, 12]: 5250 nM
Kd [2, 12]: 4.39 nM
Kd [3, 12]: 7.04 nM
Kd [4, 12]: 0.21 nM
Kd [5, 12]: 452 nM

Sequence: TTFITVLTSV
Kd [6, 11]: 16.1 nM
Kd [7, 11]: 1120 nM
Kd [8, 11]: 166 nM

Sequence: TTNNLLEQLI
Kd [6, 11]: ≥ 21000 nM
Kd [7, 11]: 8880 nM
Kd [8, 11]: 13100 nM

Sequence: VAVNKSNKPL
Kd [6, 11]: 5130 nM
Kd [7, 11]: 2750 nM
Kd [8, 11]: 17600 nM

Sequence: VCSFYADPK
Kd [1, 13]: ≥ 77700 nM
Kd [2, 13]: 3840 nM
Kd [3, 13]: 5680 nM
Kd [4, 13]: 3130 nM
Kd [5, 13]: ≥ 27200 nM

Sequence: VFHLYLQYIR
Kd [1, 12]: 174 nM
Kd [2, 12]: 713 nM
Kd [3, 12]: 868 nM
Kd [4, 12]: 1150 nM
Kd [5, 12]: 56.3 nM

Sequence: VLAGIFAGV
Kd [10]: ≤ 1 nM

Sequence: VMCGGSLYV
Kd [6, 12]: 7.5 nM
Kd [7, 12]: 0.606 nM
Kd [8, 12]: 6.81 nM

Sequence: VQLSNNKYV
Kd [6, 11]: 541 nM
Kd [7, 11]: 7340 nM
Kd [8, 11]: 214 nM

Sequence: VSLVKKNKK
Kd [1, 11]: ≥ 77700 nM
Kd [2, 11]: ≥ 58500 nM
Kd [3, 11]: ≥ 27400 nM
Kd [4, 11]: 2280 nM
Kd [5, 11]: 856 nM

Sequence: VTFRERYSY
Kd [1, 11]: ≥ 5000 nM
Kd [2, 11]: 56.5 nM
Kd [3, 11]: 106 nM
Kd [4, 11]: 4.5 nM
Kd [5, 11]: 81.9 nM

Sequence: VTGLFKDCSK
Kd [1, 12]: ≥ 57100 nM
Kd [2, 12]: 4670 nM
Kd [3, 12]: 10300 nM
Kd [4, 12]: 4740 nM
Kd [5, 12]: 5120 nM

Sequence: VTLDFTKFH
Kd [1, 14]: ≥ 57200 nM
Kd [2, 14]: 7440 nM
Kd [3, 14]: ≥ 28400 nM
Kd [4, 14]: 208 nM
Kd [5, 14]: 13100 nM

Sequence: VVECLTVPNI
Kd [6, 11]: 19600 nM
Kd [7, 11]: 8420 nM
Kd [8, 11]: 301 nM

Sequence: VVFLHVTYV
Kd [6, 12]: 0.281 nM
Kd [7, 12]: 7.75 nM
Kd [8, 12]: 3.86 nM

Sequence: VVMDYLDNLK
Kd [1, 12]: ≥ 46900 nM
Kd [2, 12]: 6520 nM
Kd [3, 12]: 6730 nM
Kd [4, 12]: 1960 nM
Kd [5, 12]: ≥ 36600 nM

Sequence: YIENTNQGNI
Kd [6, 11]: 582 nM
Kd [7, 11]: 1220 nM
Kd [8, 11]: 6200 nM

Sequence: YIWIKNLET
Kd [6, 11]: 1180 nM
Kd [7, 11]: 12600 nM
Kd [8, 11]: 347 nM

Sequence: YLGHSAGFT
Kd [6, 11]: 225 nM
Kd [7, 11]: 874 nM
Kd [8, 11]: 4550 nM

Sequence: YLLGDSDSVA
Kd [6, 11]: 22.8 nM
Kd [7, 11]: 1.97 nM
Kd [8, 11]: 135 nM

Sequence: YNFSLSAAV
Kd [6, 15]: ≥ 78100 nM
Kd [7, 15]: ≥ 46200 nM
Kd [8, 15]: ≥ 77000 nM

Sequence: YNYSLSAAV
Kd [6, 14]: 67.2 nM
Kd [7, 14]: 78.9 nM
Kd [8, 14]: 88.4 nM

Sequence: YTGGYDVSL
Kd [6, 11]: 6050 nM
Kd [7, 11]: 1990 nM
Kd [8, 11]: ≥ 20300 nM

Kd ([6]; source organism: Homo sapiens): 0.978 nM
Sequence: YVASYLLAA
